Residue numbers refer to the chain shown, from its start. Names and notes keep the numbering of the source.
B1: PAD4^59/60/61/81/91 (K59S K60S K61S K81S K91S) (enzyme, human, UniProt Q9UM07 1-663, looked up)
chain: MAQGTLIRVTPEQPTHAVCVLGTLTQLDICSSAPEDCTSFSINASPGVVVDIAHGPPASSSSTGSSTWPLDPGVEVTLTMSVASGSTGDQSVQISYYGPKTPPVKALLYLTGVEISLCADITRTGKVKPTRAVKDQRTWTWGPCGQGAILLVNCDRDNLESSAMDCEDDEVLDSEDLQDMSLMTLSTKTPKDFFTNHTLVLHVARSEMDKVRVFQATRGKLSSKCSVVLGPKWPSHYLMVPGGKHNMDFYVEALAFPDTDFPGLITLTISLLDTSNLELPEAVVFQDSVVFRVAPWIMTPNTQPPQEVYACSIFENEDFLKSVTTLAMKAKCKLTICPEEENMDDQWMQDEMEIGYIQAPHKTLPVVFDSPRNRGLKEFPIKRVMGPDFGYVTRGPQTGGISGLDSFGNLEVSPPVTVRGKEYPLGRILFGDSCYPSNDSRQMHQALQDFLSAQQVQAPVKLYSDWLSVGHVDEFLSFVPAPDRKGFRLLLASPRSCYKLFQEQQNEGHGEALLFEGIKKKKQQKIKNILSNKTLREHNSFVERCIDWNRELLKRELGLAESDIIDIPQLFKLKEFSKAEAFFPNMVNMLVLGKHLGIPKPFGPVINGRCCLEEKVCSLLEPLGLQCTFINDFFTYHIRHGEVHCGTNVRRKPFSFKWWNMVP
notes: Full length human PAD4 (GenBank NM_012387) with K59S K60S K61S K81S K91S; source: E. coli BL21(DE3), purified (HisTrap FF, HiTrap Heparin HP, Superdex 200 SEC)
B2: PAD4^123/126/128 (R123S K126S K128S) (enzyme, human, UniProt Q9UM07 1-663, looked up)
chain: B1 chain with S59K, S60K, S61K, S81K, S91K, R123S, K126S, K128S
notes: Full length human PAD4 (GenBank NM_012387) with R123S K126S K128S; source: E. coli BL21(DE3), purified (HisTrap FF, HiTrap Heparin HP, Superdex 200 SEC)
B3: PAD4^126/128/131/134/137 (K126S K128S R131S K134S R137S) (enzyme, human, UniProt Q9UM07 1-663, looked up)
chain: B1 chain with S59K, S60K, S61K, S81K, S91K, K126S, K128S, R131S, K134S, R137S
notes: Full length human PAD4 (GenBank NM_012387) with K126S K128S R131S K134S R137S; source: E. coli BL21(DE3), purified (HisTrap FF, HiTrap Heparin HP, Superdex 200 SEC)

Key:
heparin [1] = test: SPR; conditions: immobilized heparin
heparin [2] = test: heparin activation assay with BAEE substrate, Hill equation fit (apparent KD); conditions: 0.1 mM Ca2+
heparin [3] = test: heparin column chromatography (Poros heparin), salt gradient; conditions: gradient of 2 M NaCl; parent: est. 31 min; read off a plot
[4] = molecular target: the molecule itself; test: SEC; analytical SEC in the presence of 5 µM heparin, Superdex 200 Increase 3.2/300, protein at 0.15 µM, 50 mM Tris pH 7.5, 300 mM NaCl, 0.1 mM CaCl2, 0.05% Tween20, 0.25 mM DTT; tryptophan fluorescence
[5] = molecular target: the molecule itself; test: SEC; analytical SEC without heparin, Superdex 200 Increase 3.2/300, protein at 0.15 µM, 50 mM Tris pH 7.5, 300 mM NaCl, 0.1 mM CaCl2, 0.05% Tween20, 0.25 mM DTT; tryptophan fluorescence; compared with HMW calibration standards

| Molecule | Kd (heparin [1]) | koff (heparin [1]) | kon (× 10^4 M^-1s^-1) (heparin [1]) | Kd (heparin [2]) | response (heparin [1]) | other: peak elution time from heparin column (heparin [3]) | stoichiometry N [4] | stoichiometry N [5] | binding result [4] |
| --- | --- | --- | --- | --- | --- | --- | --- | --- | --- |
| peptidylarginine deiminase 4 (PAD4), recombinant human, wild type (from UniProt Q9UM07) K59S; K60S; K61S; K81S; K91S | 11.8 nM | 6.7 × 10^-4 | 5.6 | 6.1 nM |  |  |  |  |  |
| peptidylarginine deiminase 4 (PAD4), recombinant human, wild type (from UniProt Q9UM07) K126S; K128S; R131S; K134S; R137S | 13.5 nM | 3.9 × 10^-4 | 3.1 | 7.5 nM |  |  |  |  |  |
| peptidylarginine deiminase 4 (PAD4), recombinant human, wild type (from UniProt Q9UM07) R8E | 15.7 nM | 4.2 × 10^-4 | 2.6 | 13.5 nM | 659 RU |  |  |  |  |
| peptidylarginine deiminase 4 (PAD4), recombinant human, wild type (from UniProt Q9UM07) R8E; Y435A | 15.5 nM | 4.5 × 10^-4 | 3 |  | 802 RU |  |  |  |  |
| peptidylarginine deiminase 4 (PAD4), recombinant human, wild type (from UniProt Q9UM07) R123S; K126S; K128S | 14.4 nM | 4.6 × 10^-4 | 3 | 6.2 nM | 328 RU | 29 min |  |  |  |
| peptidylarginine deiminase 4 (PAD4), recombinant human, wild type (from UniProt Q9UM07) Y435A | 16.6 nM | 4.5 × 10^-4 | 2.8 | 13.3 nM | 786 RU |  |  |  |  |
| B1 |  |  |  |  |  |  | ≤ 4 | 4 |  |
| B2 |  |  |  |  |  |  |  |  | binds |
| B3 |  |  |  |  |  |  | ≤ 4 | 4 |  |
